# Source: US20260055205A1 (published 2026)
# T1: cynomolgus monkey CD3 epsilon (cynomolgus monkey, UniProt Q95LI5 22-117, limits assumed)
# T1 construct: also called cyCD3e; cyno CD3
# T1 sequence (looked up): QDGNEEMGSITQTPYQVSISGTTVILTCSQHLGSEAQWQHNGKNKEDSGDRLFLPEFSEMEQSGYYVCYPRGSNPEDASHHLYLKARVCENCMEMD
# Columns and labels:
# [1] = biological target: T2, human PSMA (human, UniProt Q04609 44-750, limits assumed); assay: Octet
# T2 construct: also called huPSMA; hPSMA
# [2] = biological target: T3, cynomolgus monkey PSMA (cynomolgus monkey, UniProt A0A2K5VNZ0 44-750); assay: Octet
# T3 construct: also called cyPSMA; cyno PSMA
# [3] = biological target: T4, human CD3 epsilon (human, UniProt P07766 23-126, limits assumed); assay: Octet
# T4 construct: also called huCD3e
# [4] = biological target: T1, cynomolgus monkey CD3 epsilon; assay: Octet
# [5] = biological target: T2, human PSMA; assay: Biacore
# [6] = biological target: T3, cynomolgus monkey PSMA; assay: Biacore
# [7] = biological target: T4, human CD3 epsilon; assay: Biacore
# [8] = biological target: T1, cynomolgus monkey CD3 epsilon; assay: Biacore
# [9] = biological target: T2, human PSMA; assay: BLI or SPR
# [10] = biological target: T3, cynomolgus monkey PSMA; assay: BLI or SPR
# [11] = biological target: T4, human CD3 epsilon; assay: BLI or SPR
# [12] = biological target: T1, cynomolgus monkey CD3 epsilon; assay: BLI or SPR
# [13] = biological target: PSMA on LNCaP cells (human, UniProt Q04609 1-750); assay: cell-based or functional assay
# [14] = biological target: PSMA on 22Rv1 cells (human, UniProt Q04609 1-750); assay: cell-based or functional assay
# [15] = biological target: T5, human PSMA on PSMA-transfected CHO cells (human, UniProt Q04609 1-750); assay: cell binding, labeled secondary antibody
# T5 construct: whole, on cells; also called Hu PSMA CHO
# Procedure: (§1) Surface binding was detected with a labeled secondary antibody specific for the anti-CD3 scFv.
# (§2) The binding affinities to both human and cyno PSMA and human and cyno CD3 epsilon were determined.
# [16] = biological target: T6, human PSMA-Fc (human, UniProt Q04609 44-750); assay: Octet
# T6 construct: also called Human PSMA-Fc fusion
# [17] = biological target: T6, human PSMA-Fc; assay: Octet; remark: listed apart in the source
# [18] = biological target: T6, human PSMA-Fc; assay: Octet, PSMA-Fc
# Procedure: Binding affinity of select PSMA PTE variants was tested by Octet.
# [19] = biological target: T7, cyno PSMA on PSMA-transfected CHO cells (cynomolgus monkey, UniProt A0A2K5VNZ0 1-750); assay: cell binding, labeled secondary antibody
# T7 construct: whole, on cells; also called Cyno PSMA CHO
# Procedure: as §1, §2
# [20] = biological target: T2, human PSMA; assay: relative binding to PSMA, uTCE
# Chain of PSMA on 22Rv1 cells (Q04609 whole entry): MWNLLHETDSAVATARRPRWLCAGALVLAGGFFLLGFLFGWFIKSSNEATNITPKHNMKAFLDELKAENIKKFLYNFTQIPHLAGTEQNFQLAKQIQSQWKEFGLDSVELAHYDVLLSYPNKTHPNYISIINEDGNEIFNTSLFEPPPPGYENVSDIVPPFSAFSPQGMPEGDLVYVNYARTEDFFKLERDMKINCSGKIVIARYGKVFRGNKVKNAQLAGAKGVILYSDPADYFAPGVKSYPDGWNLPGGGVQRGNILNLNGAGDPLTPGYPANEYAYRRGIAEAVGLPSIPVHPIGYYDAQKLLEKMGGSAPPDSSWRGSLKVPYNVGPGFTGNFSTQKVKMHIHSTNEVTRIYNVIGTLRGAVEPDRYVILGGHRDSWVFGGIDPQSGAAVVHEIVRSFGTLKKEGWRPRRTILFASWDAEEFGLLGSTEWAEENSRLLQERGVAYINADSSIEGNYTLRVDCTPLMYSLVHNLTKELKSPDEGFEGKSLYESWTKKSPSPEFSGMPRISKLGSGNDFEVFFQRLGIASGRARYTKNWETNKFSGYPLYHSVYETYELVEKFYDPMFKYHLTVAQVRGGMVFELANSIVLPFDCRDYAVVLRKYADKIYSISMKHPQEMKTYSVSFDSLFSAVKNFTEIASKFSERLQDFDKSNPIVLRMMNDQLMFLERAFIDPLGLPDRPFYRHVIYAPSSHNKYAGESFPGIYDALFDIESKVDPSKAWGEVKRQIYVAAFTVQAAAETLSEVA
# Chain of PSMA on LNCaP cells (Q04609 whole entry): as above
# T4 sequence (P07766 23-126 limits assumed): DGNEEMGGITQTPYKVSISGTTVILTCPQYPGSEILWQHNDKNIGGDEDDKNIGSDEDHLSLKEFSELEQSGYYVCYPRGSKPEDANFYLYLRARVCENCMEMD
# T6 sequence (Q04609 44-750 limits assumed): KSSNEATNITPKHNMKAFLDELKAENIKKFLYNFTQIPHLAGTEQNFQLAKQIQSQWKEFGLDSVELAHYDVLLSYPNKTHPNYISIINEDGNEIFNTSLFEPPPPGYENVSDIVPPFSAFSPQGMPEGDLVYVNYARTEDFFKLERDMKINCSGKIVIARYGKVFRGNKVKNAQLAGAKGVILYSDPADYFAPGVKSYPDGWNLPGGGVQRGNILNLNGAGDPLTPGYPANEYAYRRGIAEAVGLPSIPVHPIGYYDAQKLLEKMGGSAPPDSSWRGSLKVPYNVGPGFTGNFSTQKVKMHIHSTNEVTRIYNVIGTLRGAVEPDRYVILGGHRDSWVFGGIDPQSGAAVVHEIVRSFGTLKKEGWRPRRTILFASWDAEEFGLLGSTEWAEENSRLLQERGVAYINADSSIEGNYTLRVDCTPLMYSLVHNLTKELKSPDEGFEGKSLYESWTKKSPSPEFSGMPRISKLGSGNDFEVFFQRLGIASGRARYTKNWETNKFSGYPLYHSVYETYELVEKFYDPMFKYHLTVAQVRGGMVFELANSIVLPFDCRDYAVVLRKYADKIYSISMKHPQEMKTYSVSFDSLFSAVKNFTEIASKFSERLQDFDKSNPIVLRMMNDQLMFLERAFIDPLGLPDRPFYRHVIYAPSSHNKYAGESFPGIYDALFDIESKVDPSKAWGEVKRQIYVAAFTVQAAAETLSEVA
# T2 sequence (Q04609 44-750 limits assumed): as above
# T5 sequence (Q04609 whole entry): as the sequence (Q04609 whole entry) above
binder,measurement,setting,value
"AMX-500(uTCE) (bispecific antibody, also called uTCE from AC3896; AMX-500-P4 uTCE) QVQLVESGGGVVQPGRSLRLSCAASGRTFGIYVWGWFRQAPGKEREFVGAMSWSGSNRKVSDSVKGRFTISRDNSKNTLYLQMNSLRAEDTAVYYCAASNKEYGRTWYDFNESDYWGQGTQVTVSSGGGGSGGGSELVVTQEPSLTVSPGGTVTLTCRSSNGAVTSSNYANWVQQKPGQAPRGLIGGTNKRAPGTPARFSGSLLGGKAALTLSGVQPEDEAVYYCALWYPNLWVFGGGTKLTVLSESATPESGPGTSPGATPESGPGTSESATPEVQLVESGGGIVQPGGSLRLSCAASGFTFSTYAMNWVRQAPGKGLEWVGRIRTKRNNYATYYADSVKGRFTISRDDSKNTVYLQMNSLKTEDTAVYYCVRHENFGNSYVSWFAHWGQGTLVTVSS",Kd,[1],12.1 nM
same,Kd,[2],201 nM
same,Kd,[3],33.2 nM
same,Kd,[4],38.8 nM
same,Kd,[5],11.7 nM
same,Kd,[6],230 nM
same,Kd,[7],12.8 nM
same,Kd,[8],13.7 nM
same,Kd,[9],44 nM
same,koff,[9],0.012 s⁻¹
same,kon,[9],270000 M⁻¹ s⁻¹
same,Kd,[10],410 nM
same,koff,[10],0.043 s⁻¹
same,kon,[10],100000 M⁻¹ s⁻¹
same,Kd,[11],28 nM
same,koff,[11],0.1 s⁻¹
same,kon,[11],4e+06 M⁻¹ s⁻¹
same,Kd,[12],26 nM
same,koff,[12],0.1 s⁻¹
same,kon,[12],5e+06 M⁻¹ s⁻¹
same,"in vitro cytotoxicity IC50, LNCaP cells, donor 1",[13],0.024 nM
same,"in vitro cytotoxicity IC50, LNCaP cells, donor 2",[13],0.015 nM
same,"in vitro cytotoxicity IC50, LNCaP cells, donor 3",[13],0.016 nM
same,"in vitro cytotoxicity IC50, LNCaP cells, donor 5",[13],0.032 nM
same,"in vitro cytotoxicity IC50, 22Rv1 cells, donor 1",[14],0.691 nM
same,"in vitro cytotoxicity IC50, 22Rv1 cells, donor 2",[14],1.34 nM
same,"in vitro cytotoxicity IC50, 22Rv1 cells, donor 3",[14],1.3 nM
same,EC50,[15],17.4 nM
"uTCE of AC3092 (bispecific antibody, also called AMX-500-P1; PSMA.5-CD3.23) QVQLVESGGGVVQPGRSLRLSCAASGRTFGIYVMGWVRQAPGKEREFVAAISWSGSNRLVSDSVKGRFTISRDNSKNTLYLQMNSLRAEDTAVYYCAASNRLYGRTWYDFNESDYWGQGTQVTVSSGGGGSGGGSELVVTQEPSLTVSPGGTVTLTCRSSNGAVTSSNYANWVQQKPGQAPRGLIGGTNKRAPGTPARFSGSLLGGKAALTLSGVQPEDEAVYYCALWYPNLWVFGGGTKLTVLGATPPETGAETESPGETTGGSAESEPPGEGEVQLLESGGGIVQPGGSLKLSCAASGFTFNTYAMNWVRQAPGKGLEWVARIRSKYNNYATYYADSVKDRFTISRDDSKNTVYLQMNNLKTEDTAVYYCVRHENFGNSYVSWFAHWGQGTLVTVSS",Kd,[16],3.9 nM
same,Kd,[17],3.9 nM
same,koff,[17],0.00027 s⁻¹
same,kon,[17],72000 M⁻¹ s⁻¹
same,Kd,[1],4.5 nM
same,Kd,[2],41.1 nM
same,Kd,[3],71.9 nM
same,Kd,[4],64.6 nM
same,Kd,[18],3.9 nM
same,koff,[18],0.000273 s⁻¹
same,kon,[18],72500 M⁻¹ s⁻¹
same,EC50,[15],9.06 nM
same,EC50,[19],28.8 nM
"uTCE of AC2755 (bispecific antibody, V domains shown, TCE with CD3.23; also called VHH41) VH: QVQLVESGGGVVQPGRSLRLSCAASGRTFDVYAMGWVRQAPGKERELVAAINWSGSNKFHADSVKGRFTISRDNSKNTLYLQMNSLKTEDTAMYFCAASTRLYGTTWYEFNDSDYWGQGTQVTVSS",binding result,[20],binds
"uTCE of AC2750 (bispecific antibody, V domains shown, TCE with CD3.23; also called VHH36) VH: QVQLVESGGGVVQPGRSLRLSCAASGRTFDVYAMGWFRQAPGKGRELVAAINWSGSNKFHADSVKGRFTISRDNSKNTLYLQMNSLRPEDTAVYFCAASTRLYGTTWYEFNDSDYWGQGTQVTVSS",binding result,[20],binds
